Data reported in patent US20160040149A1, “Compositions Having Dicamba Decarboxylase Activity and Methods of Use” (priority 2013, published 2016).

B1: 117 (protein)
chain: MAKKPRIDMHSHFFPRISEQEAAKFDANHAPWLQVSAKGDTGSIMMGKNNFRPVYQALWDPAFRIEEMDAQGVDVQVTCATPVMFGYTWEANKAAQWAERMNDFALEFAAHNPQRIKVLAQVPLQDLDLACKEASRAVAAGHLGIQIGNHLGDKDLDDATLEAFLTHCANEDIPILVHPWDMMGGQRMKKWMLPVLVAAPAEVQLAILSLILSGAFERIPKSLKICFAGGGGSFAFLLGIVDLAWRHRDIVREDCPRPPSEYVDRFFVDSLVFNPGALELLVSVMGEDRVMLGSDYPFPTGEQKIGGLVLSSNLGESAKDKIISGNASKFFNINV
modifications: Dicamba decarboxylase variant clone: DC.5.008
B2: 118 (protein)
chain: MAKKPRIDMHSHFFPRISEQEAAKFDANHAPWLQVSAKGDTGSIMMGKNNFQPVYQALWDPAFRIEEMDAQGVDVQVTCATPVMFGYTWEANKAAQWAERMNDFALEFAAHNPQRIKVLAQVPLQDLDLACKEASRAVAAGHLGIQIGNHLGDKDLDDATLEAFLTHCANEDIPILVHGTDMMGGQRMKKWGLPWLVALAAEVQLAILSLILSGAFERIPKSLKICFSHGGGSFAFLLGLVDEAWRHVDIVREDCPRPPSEYVDRFFVDSVGNPGALELLVSVMGEDRVMLGSDYPHTTGEQKIGGLVLSSNLGESAKDKIISGNASKFFNINV
modifications: Dicamba decarboxylase variant clone: DC.5.033
B3: 119 (protein)
chain: MAKKPRIDMHSHFFPRISEQEAAKFDANHAPWLQVSAKGDTGSIMMGKNNFQPVYQALWDPAFRIEEMDAQGVDVQVTCATPVMFGYTWEANKAAQWAERMNDFALEFAAHNPQRIKVLAQVPLQDLDLACKEASRAVAAGHLGIQIGNHLGDKDLDDATLEAFLTHCANEDIPILVHGWDMMGGQRMKKWGLYWLVAHHAEVQLAILSLILSGAFERIPKSLKICFSHGGGSFAFTLGWVDEAWRHVDIVREDCPRPPSEYVDRFFVDSVGNPGALELLVSVMGEDRVMLGSDYPLTTGEQKIGGLVLSSNLGESAKDKIISGNASKFFNINV
modifications: Dicamba decarboxylase variant clone:DC.5.034
B4: 120 (protein)
chain: MAIIDCHGHYTTTPKGVETYRNAQKAAVAKDPSFKYEKGQVVVSDDEIRESIENNQLKMQRERGTDLTIFSPRSTAGGHHIGNEYTSQFWTEHQNDLIRRVCDLFPKNFAPVAQLPQSPGVDPAKSVPEIVRTVEQMGFIGINLNPDPSGGYWKDTSLADRAFYPIYEKMVEYDIPAMIHPRNACNDCFHTTGSHALGADTTGFQQLIMSDVFKDFPSLKIIIPHGGGAVPYHWGRFRGLMQDQGYAPLEESALKNIYFDTCVYHQRGIDLLLDIVPTQNILFASEMIGAVRGIDAETGHNFDDTKRYIDNNTALNAEEKAMIFEGNARRVFSRLKTD
modifications: Dicamba decarboxylase variant clone: DC.12.002
B5: 121 (protein)
chain: MAIIDCHGHYTTTPKGVEDYRNAQKAAVAKDPSFKGEKGQVVVSDDEIRESIENNQLKMQRERGTDLTIFSPRWDAGGHHIGNEYTSQFWTEHQNDLIRRVCDLFPKNFAPVAQLPQSPGVDPAKSVPEIVRTVEQMGFIGINLNPDPSGGYWKDTSLADRAFYPIYEKMVEYDIPAMIHPRLACNACFHTGLSVGLGADTTGFQQLIMSDVFKDFPSLKIIIPHGGGAVPYHWGRFRGLMQDQGYAPLEESALKNIYFDTCVYHQRGIDLLLDIVPTQNILFASEMIGAVRGIDPETGHNFDDTKRYIDNNTALNAEEKAMIFEGNARRVFSRLKTD
modifications: Dicamba decarboxylase variant clone: DC.12.014
B6: 122 (protein)
chain: MAIIDCHGHYTTTPKGVEDYRNAQKAAVAKDPSFKGEKGQVVVSDDEIRESIENNQLKMQRERGTDLTIFSPRSTAGGHHIGNEYTSQFWTEHQNDLIRRVCDLFPKNFAPVAQLPQSPGVDPAKSVPEIVRTVEQMGFIGINLNPDPSGGYWKDTSLADRAFYPIYEKMVEYDIPAMIHPRNACNDCFHTTGSHALGADTTGFQQLIMSDVFKDFPSLKIIIPHGGGAVPYHWGRFRGLMQDQGYAPLEESALKNIYFDTCVYHQRGIDLLLDIVPTQNILFASDMIGAVRGIDPETGHNFDDTKRYIDNNTALNAEEKAMIFEGNARRVFSRLKTD
modifications: Dicamba decarboxylase variant clone: DC.12.103

Assays:
[1] = GC/MS detection of decarboxylation product 2,5-DCA (toluene trapping or head space); type: biochemical; conditions: purified protein, dicamba substrate
Experimental: Alternatively, dicamba decarboxylase activity can be monitored by measuring decarboxylation products other than CO2 using product detection methods. The decarboxylation product of dicamba, 2,5-dichloro anisole or 2,5-DCA (FIG. 1C), is a volatile compound with a flash point of 21° C. To capture this volatile compound for detection, 140 ul of toluene solution is added on top of 1 ml reaction mixture to form a trapping layer in a 1.5 ml eppendorf tube. […] The reaction is kept still at room temperature overnight before being vortex mixed and centrifuged at 14,000 rpm for 15 minutes. The top toluene phase is carefully removed using a micropipette and transferred into a 12×32 mm polypropylene vial (Vial 11 mm) from MicroLiter Analytical Supplies, Inc. (catalog number 11-5300-100). The vial is sealed with Crimp seal (11 mm with FEP/Nat Rubber) from MicroLiter Analytical Supplies, Inc. (catalog number 11-0020A) using a E-Z Crimper™ 11 mm from Wheaton Inc. lul of the toluene mixture is taken from the sealed vials and injected in splitless mode into a GC/MS system for sample analysis (Agilent GC/MS system with a 6890A GC, a 5973N MSD and a CTC CombiPAL auto-sampler or with a 7890A GC, a 5975C MSD and an Agilent GC Sampler 80 auto-sampler). The GC parameters are: Agilent DB-5MS column (30 m length, 0.25 mm diameter, 0.25 um film) or equivalent; The GC inlet temperature, 250° C.; Carry gas, helium in constant flow mode (1.2 mL/min); The GC oven temperature program, initial temperature at 70° C. for 1 min, ramping to 200° C. at 15° C./min, and then ramping to 250° C. at 30° C./min. MS data acquisition is done in SIM (selected ion monitoring) mode, monitoring the positive ion at M/Z 176 for the molecular ion of […]. The solvent delay for MS acquisition is set at 4 min. Another method for detection of 2,5-DCA is a head-space GC/MS method. Briefly, reaction mixtures in 500 ul reaction volume are prepared in 1.5 ml 12×32 mm glass vials (Microliter Analytical Supplies, Cat#11-1200) for head space analysis. Glass vials are sealed with magnetic cap from MicroLiter Analytical Supplies, Inc. (catalog number 11-0030AT) using a E-Z Crimper™ 11 mm from Wheaton Industries Inc. The reaction is carried out at room temperature for various amount of time and stopped by heating at 95° C. for 5 min. The reaction vial is transferred to a agitator for incubation at 80° C. for 5 min at 500 rpm. With a syringe preheated at 80° C., 1000 uL of head space is injected with sample fill speed at 100 uL/sec. GC/MS parameters for headspace analysis are the same as for liquid sample analysis.

[2] = Saturation mutagenesis of SEQ ID NO:109: dicamba decarboxylation activity of point mutants (CO2 released), fold of backbone (Tables 7, 8, Megatable 1); conditions: decarboxylation activity (CO2 released) of point mutant vs unmutated backbone protein; backbone SEQ ID NO: 109
[3] = Dicamba decarboxylase activity / product analysis with purified His-tag protein (14C assay and product detection of Example 1); type: biochemical; conditions: for other products (than 2,5-DCA): purified protein, dicamba substrate; for dicamba decarboxylase activity: statement of the description
Experimental: To obtain purified protein for activity assays, IPTG-induced cells were harvested by centrifugation at 7,000 rpm for 10 mins Cell pellet from 50 mL of cell culture was frozen and thawed twice and then lysed in 8004 lysis buffer consisting of 50 mM potassium phosphate buffer (pH7.0), 50 μM ZnSO4, 5% EG, 50 mM KCl, 1 mM DTT, 0.2 mg/ml lysozyme, 1/200 protease inhibitor cocktail (EMD set3, EDTA free), and 1/2,000 endonuclease. Lysate was then centrifuged at 13,000 rpm for 45 min at 4° C. Supernatant was loaded onto 200 μL Ni-NTA columns pre-equilibrated with 10 mM His Buffer containing 25 mM potassium phosphate buffer pH7, 50 μM ZnSO4, 5% EG, 200 mM KCl, and 10 mM histidine. The columns were let sit at 4° C. until the entire supernatant passed through. Each column was then washed with 200 ul 10 mM His Buffer twice and then 4 times with 800 ul loading buffer consisting of 25 mM potassium phosphate buffer pH7, 50 μM ZnSO4, 5% EG, 200 mM KCl. Protein was eluted with 1504 of Elution Buffer consisting of 25 mM potassium phosphate buffer pH7, 50 μM ZnSO4, 5% EG, 100 mM KCl, 100 mM histidine, 10% glycerol. The protein concentration was measured by Bradford assay. Purified protein was used for dicamba decarboxylase activity measurement as described in Example 1. Enzyme kinetic characterization of selected dicamba decarboxylases was determined through GC/MS measurement of 2,5-DCP or PEPC coupled assay as described in Example 1.

Molecule | minor decarboxylation product 2,5-DCA [1] | Fold Activity [2] | other products (than 2,5-DCA) [3] | dicamba decarboxylase activity [3]
B1 | detected | 1.8 fold | not detected | shown herein to have dicamba decarboxylase activity
B2 | detected | 1.4 fold | not detected | shown herein to have dicamba decarboxylase activity
B3 | detected | 1.6 fold | not detected | shown herein to have dicamba decarboxylase activity
B4 | detected | 1.3 fold | not detected | shown herein to have dicamba decarboxylase activity
B5 | detected | 1 fold | not detected | shown herein to have dicamba decarboxylase activity
B6 | detected | 0.9 fold | not detected | shown herein to have dicamba decarboxylase activity
